The record followed here is patent US20250002528A1 (OXFORD UNIVERSITY INNOVATION, published 2025).

The target in assay [1] is T1, SpyTag-MBP.
T1 construct: Fusion of SpyTag and MBP
In words: ITC, monomeric SpySwitch, pH 7.5, 5 °C; ITC, pH 7.5, 5 C. In general terms: Isothermal titration calorimetry measures the heat released or taken up as one component is titrated into another.

Assay [2] deals with T2, SpyTag003-MBP.
T2 construct: Fusion of SpyTag003 and MBP
The assay is described as above.

B1: SpySwitch (designed binder)
chain: MSYYHHHHHHGSGGSGAMVTTLSGLSGEQGPSGDMTTEEDSATHIHFHKHDEDGRELAGATMELRDCSGKTISTWITDGHVKDFYLYPGKYTFVATAAPDGHHVATPIEFTINEDGQVTVDGEATEGDPHTGSSGS
notes: also called SpySwitch resin; monomeric SpySwitch
By Kd is commonly meant the concentration at which binding is half-saturated. As for B1, in assay [1], the Kd turned out to be 1100 nM and the stoichiometry came to 1. Besides, in assay [2], the Kd was determined as 1500 nM and the stoichiometry is 1.
